In patent EP4724480A2 (dated 2026):

How the values were obtained:
[1] = target: T1, ToH1 peptide of LptF (E. coli), SPEKPTV (E. coli); assay: ELISA on ToH1 peptides (FIG.10B)
T1 construct: also called LptF ToH1 peptide

[2] = target: T2, ToH1 peptide of BmpC (Borrelia burgdorferi), SYERPDI (Borrelia burgdorferi); assay: ELISA on ToH1 peptides (FIG.10B)
T2 construct: also called BmpC ToH1 peptide

[3] = target: T3, ToH1 peptide of OmpA (Bacteroidales), SFELPTI (Bacteroidales); assay: ELISA on ToH1 peptides (FIG.10B)
T3 construct: also called OmpA ToH1 peptide

[4] = target: T4, ToH1 peptide of HyR3 (Candida albicans), TFEPPVV (Candida albicans); assay: ELISA on ToH1 peptides (FIG.10B)
T4 construct: also called HyR3 ToH1 peptide

[5] = target: T5, ToH1 peptide of Asa1 (Enterococcus faecalis), […] (Enterococcus faecalis); assay: ELISA on ToH1 peptides (FIG.10B)
[6] = target: T6, E. coli FimH, wild type, on E. coli (BW25113) cells (E. coli, UniProt P08191 22-300); assay: flow cytometry and immunofluorescence of rHMGB1 on E. coli BW25113
T6 construct: whole, on cells; also called WT FimH; ∆FimHWT
T6 sequence (P08191 22-300): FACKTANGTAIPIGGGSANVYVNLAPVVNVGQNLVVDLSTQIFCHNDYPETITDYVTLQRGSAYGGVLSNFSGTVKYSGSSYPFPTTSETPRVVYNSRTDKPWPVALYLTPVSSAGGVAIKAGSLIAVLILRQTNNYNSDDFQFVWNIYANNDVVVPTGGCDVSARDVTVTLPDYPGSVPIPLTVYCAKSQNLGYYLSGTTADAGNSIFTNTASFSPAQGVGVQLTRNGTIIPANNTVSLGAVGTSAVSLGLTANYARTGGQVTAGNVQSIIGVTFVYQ

[7] = target: T1, ToH1 peptide of LptF (E. coli), SPEKPTV; assay: ELISA on ToH1 peptides (FIG.10A)
[8] = target: T2, ToH1 peptide of BmpC (Borrelia …); assay: ELISA on ToH1 peptides (FIG.10A)
[9] = target: T3, ToH1 peptide of OmpA (Bacteroidales), …; assay: ELISA on ToH1 peptides (FIG.10A)
[10] = target: T4, ToH1 peptide of HyR3 (Candida …); assay: ELISA on ToH1 peptides (FIG.10A)
[11] = target: T5, ToH1 peptide of Asa1 (Enterococcus …); assay: ELISA on ToH1 peptides (FIG.10A)

Measured: binding result

B1: F5 scFv (scFv)
scFv: EVQLVQSGPEVKKPGASVKVSCKASGFIFSNYGIGWVRQAPGQGLEWLGWISGYNGQTNYAQTVQGRVTMTADTSTTTAYMDLRNLRSDDTAIYYCARQSIPYYMDVWGKGTMVTVSSGGGGSGGGGSGGGGSGGGGASDIVMTQSPLSSPVTLGQPASISCRSSQSLVHSNGNTYLSWLHQRPGQPPRLLIYRISNRLSGVPDRFSGSGAGTDFTLKISRVEAEDVGVYYCMQAKQFPVTFGQGTRLEIKGSHHHHHH
notes: also called antibody F5
binds: [1] | [2] | [3] | [4] | [5]

B2: Recombinant human HMGB1 (rHMGB1) (ligand)
chain: MGKGDPKKPRGKMSSYAFFVQTCREEHKKKHPDASVNFSEFSKKCSERWKTMSAKEKGKFEDMAKADKARYEREMKTYIPPKGETKKKFKDPNAPKRPPSAFFLFCSEYRPKIKGEHPGLSIGDVAKKLGEMWNNTAADDKQPYEKKAAKLKEKYEKDIAAYRAKGKPDAAKKGVVKAEKSKKKKEEEEDEEDEEDEEEEEDEEDEDEEEDDDDE
notes: also called High mobility group box 1
binds: [6]

B3: G6 scFv (scFv)
scFv: QVQLQQSGPGLVKPSQTLSLTCAISGDSVSSNSAAWNWIRQSPSRGLEWLGRTYYRSKWYNDYAVSVKSRITINPDTSKNQFSLQLNSVTPEDTAVYYCARRSTWGTFDYWGQGTLVTVSSGGGGSGGGGSGGGGSGGGGASDIVMTQTPDSLAVSLGERATINCKSSQSVLYSSNNKNYLAWYQQKPGQPPKLLIYWASTRESGVPDRFSGSGSGTDFTLTISSLQAEDVAVYYCQQYYALPLTFGGGTKLEIKGSHHHHHH
notes: also called antibody G6
binds: [7] | [8] | [9] | [10] | [11]
